The source of these data is publication PMC11742849.

This assay deals with recombinant mouse TfR extracellular domain protein (UniProt Q62351). The experiment in a line: ELISA. The following applies: ligand concentration 20 nM (est. from x axis); mTfR coated on plate; signal normalized to each construct's own maximum; parent: est. 78; read off a plot.
UniProt Q62351, sequence (Q62351 89-763): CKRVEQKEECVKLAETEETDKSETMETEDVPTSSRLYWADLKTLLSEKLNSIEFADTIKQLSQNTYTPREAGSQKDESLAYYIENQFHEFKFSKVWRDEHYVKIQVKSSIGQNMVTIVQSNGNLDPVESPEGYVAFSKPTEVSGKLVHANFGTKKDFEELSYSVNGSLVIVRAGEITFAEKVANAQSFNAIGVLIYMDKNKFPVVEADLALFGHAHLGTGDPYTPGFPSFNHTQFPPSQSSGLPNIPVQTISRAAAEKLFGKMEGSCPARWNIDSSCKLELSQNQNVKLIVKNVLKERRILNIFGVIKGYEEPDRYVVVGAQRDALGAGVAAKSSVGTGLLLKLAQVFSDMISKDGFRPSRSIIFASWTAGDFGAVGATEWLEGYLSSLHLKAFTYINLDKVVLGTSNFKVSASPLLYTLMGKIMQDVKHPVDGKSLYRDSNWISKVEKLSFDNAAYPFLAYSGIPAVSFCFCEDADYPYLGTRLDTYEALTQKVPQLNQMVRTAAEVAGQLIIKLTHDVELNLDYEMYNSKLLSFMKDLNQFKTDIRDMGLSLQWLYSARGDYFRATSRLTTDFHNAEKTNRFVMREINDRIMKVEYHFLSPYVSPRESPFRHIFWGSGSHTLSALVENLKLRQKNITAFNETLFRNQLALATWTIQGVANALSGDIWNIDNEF
As for scFc-scFv8D3 H102A, the response (% of own maximum OD450) was determined as 17.
With scFc-scFv8D3 S101A, the response (% of own maximum OD450) worked out at 39.
As to scFc-scFv8D3 T100V, the response (% of own maximum OD450) was found to be 26.
Consider scFc-scFv8D3 Y103F, for which the response (% of own maximum OD450) worked out at 24.
